Assay results from patent US10234460B2, “Macrocyclic peptide, method for producing same, and screening method using macrocyclic peptide library” (The University of Tokyo, priority 2013, dated 2019).
Bridge positions count the residues as written; N and C are the ends. Square brackets hold non-standard residues; d marks the D form. Ends that are not written are not given here. * marks the point of attachment. chloroacetamidine = chloroacetamidine warhead on ornithine δ-NH2, N=C(CCl)*; Ahp(2) = CCCCC[C@H](N)C(=O)O; Orn = NCCC[C@H](N)C(=O)O

Tests used:
[1] = target: T1, PAD4 (Homo sapiens, UniProt Q9UM07); test: In vitro PAD4 inhibition assay, colorimetric analysis with COLDER solution, substrate BAEE; format: biochemical; settings: peptide 0 μM to 50 μM, PAD4 0.2 μM, BAEE 10 mM; for PAD4 inhibition, dose dependence / PAD4 inhibitory activity compared with the existing PAD4 inhibitor: initial data
T1 construct: purchased Modiquest Research MQ 16.206-10
Procedure: Human PAD4 was purchased from Modiquest Research (catalog no. MQ 16.206-10). Human PAD4 is a protein having NCBI accession no. CCDS180.1, a molecular weight of 74.08 kDa, and 663 amino acids.
PAD4 inhibition assay was performed using various concentrations of VB peptides in a reaction buffer containing 100 mM HEPES (pH 7.6) and 50 mM NaCl.
Before reaction was initiated by adding BAEE (final concentration: 10 mM), the above reaction mixture was incubated with PAD4 (0.2 μM) (in the presence of 5 mM CaCl2) at 37° C. for 15 minutes. After reaction for 30 minutes, the reaction was terminated by flash freezing in liquid nitrogen. For color development, 200 μL of a freshly prepared COLDER solution (2.25 M H3PO4, 4.5 M H2SO4, 1.5 mM NH4Fe(SO4), 20 mM diacetyl monoxime, and 1.5 mM thiosemicarbazide) was added to each of the reaction terminated solutions. The resulting mixture was vortexed to ensure complete mixing and then, incubated at 95° C. for 30 minutes (Firestein, G. S., 2003, Nature, 423(6937), 356-61; Jones, J. E., et al., ACS chemical biology, 7(1), 160-5). The absorbance at 540 nm was measured. Compared with a standard curve of Cit, the concentration of Cit produced during the reaction was determined.

[2] = system: HeLa cells; test: Intracellular introduction of fluorescently labeled peptides into living HeLa cells, confocal microscope; format: cell-based; settings: 37° C., 60 minutes
Procedure: HeLa cells proliferated on a 90-mm plate until they reached sub-confluence and Trypsin/EDTA were treated at 37° C. for […] to release the cells from the plate. A culture dish (Iwaki) having a 35-mm glass bottom was seeded with 1×10^4 cells. […] The latter ones were used for confirming cell integrity. The intracellular distribution of the fluorescently labeled peptide was analyzed using a Leica TCS SP2 microscope equipped with an N PLAN 40× objective lens, without washing and immobilization. The HeLa cells were incubated with the fluorescently labeled peptides, at 37° C. for 60 minutes. […], they were observed under a confocal fluorescence microscope. All the assays were performed using a small dish with a glass bottom so that not a sample having the cells mounted thereon but a sample in a buffer was observed. DRAQ7 (3 μM) is a far-red fluorescent dye and it dyes only the nuclei of permeable dead cells. When the peptides are incubated, this DRAQ7 is added to find whether the cells are alive or not.

T1 sequence (Q9UM07 whole entry): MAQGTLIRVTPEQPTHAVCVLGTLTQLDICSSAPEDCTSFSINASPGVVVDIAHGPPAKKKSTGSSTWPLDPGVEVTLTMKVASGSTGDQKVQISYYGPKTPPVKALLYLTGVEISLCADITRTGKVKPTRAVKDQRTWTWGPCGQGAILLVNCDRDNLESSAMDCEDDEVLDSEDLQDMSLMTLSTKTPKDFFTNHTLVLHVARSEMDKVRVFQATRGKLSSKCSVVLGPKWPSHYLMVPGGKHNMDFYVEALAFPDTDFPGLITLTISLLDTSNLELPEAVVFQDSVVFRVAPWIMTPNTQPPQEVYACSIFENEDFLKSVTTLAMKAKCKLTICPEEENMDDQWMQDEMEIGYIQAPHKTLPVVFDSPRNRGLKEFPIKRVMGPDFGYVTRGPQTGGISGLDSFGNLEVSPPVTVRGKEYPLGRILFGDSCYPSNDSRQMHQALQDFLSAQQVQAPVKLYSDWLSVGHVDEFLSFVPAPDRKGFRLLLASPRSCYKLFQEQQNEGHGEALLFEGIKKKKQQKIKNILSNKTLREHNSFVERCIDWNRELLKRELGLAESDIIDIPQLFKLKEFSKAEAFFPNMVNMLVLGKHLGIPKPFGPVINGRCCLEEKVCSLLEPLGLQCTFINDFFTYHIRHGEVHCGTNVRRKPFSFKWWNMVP

PAD4 inhibition, dose dependence [1] | PAD4 inhibitory ability relative to Cl-amidine and VB1C12 peptide [1] [times] | Substance | PAD4 inhibitory activity compared with the existing PAD4 inhibitor [1] | concentration necessary for incorporation in HeLa cells [2]
dose-dependently inhibit PAD4 | – | ^ClAc-D-F-D-A-Ahep-Y-P-F-R-P-P-Ahep-A-H-C (Ac-[dF]DA[Ahp(2)]YPFRPP[Ahp(2)]AHC; bridge N-14; not fully specified (C-terminus, bridges); printed as ClAc-D-F-D-A-Ahep-Y-P-F-R-P-P-Ahep-A-H-C) [VB1C20] | not stronger than that of the existing PAD4 inhibitor | at least 10 μM
dose-dependently inhibit PAD4 | – | ^ClAc-D-F-N-A-Ahep-Y-P-Y-R-P-P-Ahep-T-S-C ({CH2CO}-[dF]NA[Ahp(2)]YPYRPP[Ahp(2)]TSC-NH2; thioether N-14; SMILES CCCCC[C@@H]1NC(=O)[C@H](C)NC(=O)[C@H](CC(N)=O)NC(=O)[C@@H](Cc2ccccc2)NC(=O)CSC[C@@H](C(N)=O)NC(=O)[C@H](CO)NC(=O)[C@H]([C@@H](C)O)NC(=O)[C@H](CCCCC)NC(=O)[C@@H]2CCCN2C(=O)[C@@H]2CCCN2C(=O)[C@H](CCCNC(=N)N)NC(=O)[C@H](Cc2ccc(O)cc2)NC(=O)[C@@H]2CCCN2C(=O)[C@H](Cc2ccc(O)cc2)NC1=O) [VB1C12] | not stronger than that of the existing PAD4 inhibitor | –
– | 2.7 | VB1C12-Cl-amidine analog: VB1C12 peptide with a haloacetamidine warhead introduced by modifying the Arg residue (ornithine δNH2 chloroacetamidine) (Ac-[dF]NA[Ahp(2)]YPY[Orn](chloroacetamidine)PP[Ahp(2)]TSC; bridge N-14; not fully specified (C-terminus, bridges)) | – | –
